The source of these data is publication PMC11506546, “Tropomyosin Isoforms Segregate into Distinct Clusters on Single Actin Filaments” (Biomolecules, 2024).

What all share (conditions): both partners purified
Experiment [1] deals with rabbit skeletal-muscle F-actin (rabbit, UniProt P68135 1-377). The experiment in a line: co-sedimentation; 0.2-3.5 µM tropomyosin with 3 µM F-actin in T buffer (150 mM NaCl, 10 mM Tris-HCl pH 7.5, 2 mM MgCl2), 50 µL, 1 h at room temperature; 670,000 x g, 20 °C, 30 min; SDS-PAGE densitometry; Hill equation fit; apparent Kd.
Experiment [2] concerns the target α-actin filament (muscle actin, polymerized from G-actin) (UniProt P68135 1-377). The experiment in a line: TIRF microscopy of tropomyosin-decorated single actin filaments; control experiments: the same Tpm isoform labeled with AF488 and with AF568 (0.015 µM of each) mixed with 1 µM G-actin in D buffer, polymerized with 50 mM NaCl for 5-10 min, 10% PEG 300; decorated filaments captured on PLL-PEG/BSA coverslips in microfluidic channels, washed with TIR50 buffer.

The target in experiment [3] is β-actin filament (cytoskeletal actin, polymerized from G-actin) (UniProt P60709 1-375). Described as above.

B1: Tpm1.6 AF488 (Tpm1.6 labeled at Cys-190 with Alexa Fluor 488 C5 maleimide) (natural protein)
chain: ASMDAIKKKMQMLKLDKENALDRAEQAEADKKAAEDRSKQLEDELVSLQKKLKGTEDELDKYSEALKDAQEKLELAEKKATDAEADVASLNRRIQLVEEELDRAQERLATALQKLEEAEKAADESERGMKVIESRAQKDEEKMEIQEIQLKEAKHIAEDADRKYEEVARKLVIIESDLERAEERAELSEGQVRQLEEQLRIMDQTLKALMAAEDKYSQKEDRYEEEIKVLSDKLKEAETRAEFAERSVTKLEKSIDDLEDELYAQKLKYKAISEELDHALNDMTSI
modifications: Alexa Fluor 488 C5 maleimide on Cys-190 (monomer labeling ratio approximately 95%)
In the case of B1, in experiment [1], the Kd amounted to 1210 nM.

B2: Tpm1.6 AF568 (Tpm1.6 labeled at Cys-190 with Alexa Fluor 568 C5 maleimide) (natural protein)
chain: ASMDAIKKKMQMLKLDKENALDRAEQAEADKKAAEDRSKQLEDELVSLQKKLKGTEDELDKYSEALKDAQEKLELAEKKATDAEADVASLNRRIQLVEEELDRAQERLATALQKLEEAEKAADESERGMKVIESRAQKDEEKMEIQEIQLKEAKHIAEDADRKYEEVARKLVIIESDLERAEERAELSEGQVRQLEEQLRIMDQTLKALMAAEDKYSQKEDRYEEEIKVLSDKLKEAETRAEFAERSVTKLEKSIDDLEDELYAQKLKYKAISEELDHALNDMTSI
modifications: Alexa Fluor 568 C5 maleimide on Cys-190 (monomer labeling ratio approximately 95%)
Take B2: the Kd in experiment [1] stood at 2370 nM. For the same molecule, the “ratio of Tpm in Ch1 (red, AF568)/Ch2 (green, AF488) on the filament, median” value in experiment [2] and in experiment [3] was 0.7 throughout.
